Measured values from PMC5914118, “Exploiting the Concept of Multivalency with ^68Ga- and ^89Zr-Labelled Fusarinine C-Minigastrin Bioconjugates for Targeting CCK2R Expression” (Contrast Media & Molecular Imaging, 2018).
Where two headings read alike, the source gives them in different places. Marks after values point to notes of the source that are not given here.

Assays:
[1] = assay type: physicochemical
Method: Aliquots (50 μL) of ^68Ga- and ^89Zr-labelled mono-, di-, and trimer (10 μM) were diluted in 450 μL PBS. After adding 500 μL octanol the mixture was vortexed with 1400 rpm (MS 3 basic vortexer, IKA, Staufen, Germany) for 15 min at RT followed by centrifugation for 2 min at 4500 rpm. Subsequently, 100 μL aliquots of the organic and the aqueous layer were collected and logD values were calculated using Excel (n = 3, six replicates) after gamma counter measurement.

[2] = system: A431-CCK2R/A431-mock tumour xenografted BALB/c nude mice; details: mouse, in vivo
Method: All animal experiments were conducted in compliance with the Austrian and Dutch animal protection laws and with approval of the Austrian Ministry of Science (BMWF-66.011/000604-II/3b/2012 and BMWFW-66.011/0049-WF/II/3b/2014). In vivo stability studies were conducted in 5-week-old female BALB/c mice (in-house breed, ZVTA Innsbruck, Dr. Hermann Dietrich). The biodistribution studies were performed using female 8−10-week-old athymic BALB/c nude mice (Charles River Laboratories, Sulzfeld, Germany). Tumour xenografts were induced by subcutaneous injection of 2 × 10^6 A431-CCK2R cells (receptor positive) in the right and the same amount of A431-mock (receptor negative) in the left flank. Tumours were allowed to grow until they had reached a volume of 0.3–0.6 cm^3. To evaluate the biodistribution profile nude mice (n = 4) were intravenously injected with either 1-2 MBq ^68Ga- or 0.3 MBq ^89Zr-labelled mono-, di-, and trimer (0.1–0.2 nmol). The animals were sacrificed by cervical dislocation after 1 h as well as 2 h and 4 h in case of ^68Ga- and ^89Zr-labelled trimer, followed by the collection of organs and tissue. The collected samples were measured in the gamma counter and the results were calculated as percentage of injected dose per gram tissue (% ID/g).

CSCC[C@H](NC(=O)[C@H](Cc1c[nH]c2ccccc12)NC(=O)CNC(=O)[C@H](Cc1ccc(O)cc1)NC(=O)[C@H](C)NC(=O)[C@@H](CCC(=O)O)NC(=O)CCSC1CC(=O)N(CCC(=O)NC2CCCN(O)C(=O)C=C(C)CCOC(=O)C(NC(=O)CCN3C(=O)CC(SCCC(=O)N[C@H](CCC(=O)O)C(=O)N[C@@H](C)C(=O)N[C@@H](Cc4ccc(O)cc4)C(=O)NCC(=O)N[C@@H](Cc4c[nH]c5ccccc45)C(=O)N[C@@H](CCSC)C(=O)N[C@@H](CC(=O)O)C(=O)N[C@@H](Cc4ccccc4)C(N)=O)C3=O)CCCN(O)C(=O)C=C(C)CCOC(=O)C(NC(C)=O)CCCN(O)C(=O)C=C(C)CCOC2=O)C1=O)C(=O)N[C@@H](CC(=O)O)C(=O)N[C@@H](Cc1ccccc1)C(N)=O (some centres unmarked) [^89Zr-labelled Dimer, metal not drawn]
Distribution coefficient logD (pH 7.4) [1]: −2.83 ± 0.02 | Tumour-to-organ ratio (T/O): A431-mock [2]: 11.2 ± 2.3 | Tumour-to-organ ratio (T/O): Blood [2]: 7.4 ± 2.3^c | Tumour-to-organ ratio (T/O): Bone [2]: 7.4 ± 1.2^c | Tumour-to-organ ratio (T/O): Heart [2]: 9.8 ± 4.8 | Tumour-to-organ ratio (T/O): Intestine [2]: 12.5 ± 3.1 | Tumour-to-organ ratio (T/O): Kidneys [2]: 0.15 ± 0.06 | Tumour-to-organ ratio (T/O): Liver [2]: 10.3 ± 3.2^c | Tumour-to-organ ratio (T/O): Lung [2]: 7.6 ± 2.9^c | Tumour-to-organ ratio (T/O): Muscle [2]: 7.9 ± 5.3 | Tumour-to-organ ratio (T/O): Pancreas [2]: 9.2 ± 3.1^c | Tumour-to-organ ratio (T/O): Spleen [2]: 10.5 ± 4.5 | Tumour-to-organ ratio (T/O): Stomach [2]: 3.4 ± 1.1 | Biodistribution: A431-CCK2R tumour (receptor positive) ([2]; 1 h): 7.69 ± 1.34^ac % ID/g | Biodistribution: A431-mock tumour (receptor negative) ([2]; 1 h): 0.86 ± 0.22 % ID/g | Biodistribution: Blood ([2]; 1 h): 1.17 ± 0.28 % ID/g | Biodistribution: Bone ([2]; 1 h): 1.36 ± 0.42 % ID/g | Biodistribution: Heart ([2]; 1 h): 1.01 ± 0.37 % ID/g | Biodistribution: Intestine ([2]; 1 h): 0.73 ± 0.25 % ID/g | Biodistribution: Kidneys ([2]; 1 h): 55.5 ± 10.3 % ID/g | Biodistribution: Liver ([2]; 1 h): 0.83 ± 0.20 % ID/g | Biodistribution: Lung ([2]; 1 h): 1.16 ± 0.28 % ID/g | Biodistribution: Muscle ([2]; 1 h): 1.51 ± 0.70 % ID/g | Biodistribution: Pancreas ([2]; 1 h): 0.95 ± 0.23^c % ID/g | Biodistribution: Spleen ([2]; 1 h): 0.99 ± 0.40 % ID/g | Biodistribution: Stomach ([2]; 1 h): 2.99 ± 1.13 % ID/g

CSCC[C@H](NC(=O)[C@H](Cc1c[nH]c2ccccc12)NC(=O)CNC(=O)[C@H](Cc1ccc(O)cc1)NC(=O)[C@H](C)NC(=O)[C@@H](CCC(=O)O)NC(=O)CCSC1CC(=O)N(CCC(=O)NC2CCCN(O)C(=O)C=C(C)CCOC(=O)C(NC(C)=O)CCCN(O)C(=O)C=C(C)CCOC(=O)C(NC(C)=O)CCCN(O)C(=O)C=C(C)CCOC2=O)C1=O)C(=O)N[C@@H](CC(=O)O)C(=O)N[C@@H](Cc1ccccc1)C(N)=O (some centres unmarked) [^89Zr-labelled Monomer, metal not drawn]
Distribution coefficient logD (pH 7.4) [1]: −3.17 ± 0.06 | Tumour-to-organ ratio (T/O): A431-mock [2]: 7.5 ± 1.8 | Tumour-to-organ ratio (T/O): Blood [2]: 9.0 ± 4.7^b | Tumour-to-organ ratio (T/O): Bone [2]: 4.7 ± 1.3^b | Tumour-to-organ ratio (T/O): Heart [2]: 14.8 ± 4.7^b | Tumour-to-organ ratio (T/O): Intestine [2]: 7.9 ± 2.3 | Tumour-to-organ ratio (T/O): Kidneys [2]: 0.17 ± 0.03^b | Tumour-to-organ ratio (T/O): Liver [2]: 12.4 ± 2.8^b | Tumour-to-organ ratio (T/O): Lung [2]: 6.5 ± 1.6^b | Tumour-to-organ ratio (T/O): Muscle [2]: 15.9 ± 4.2^b | Tumour-to-organ ratio (T/O): Pancreas [2]: 13.3 ± 2.9^b | Tumour-to-organ ratio (T/O): Spleen [2]: 18.7 ± 6.1^b | Tumour-to-organ ratio (T/O): Stomach [2]: 4.9 ± 1.3^b | Biodistribution: A431-CCK2R tumour (receptor positive) ([2]; 1 h): 1.91 ± 0.40 % ID/g | Biodistribution: A431-mock tumour (receptor negative) ([2]; 1 h): 0.26 ± 0.05^ab % ID/g | Biodistribution: Blood ([2]; 1 h): 0.30 ± 0.19^ab % ID/g | Biodistribution: Bone ([2]; 1 h): 0.42 ± 0.10^ab % ID/g | Biodistribution: Heart ([2]; 1 h): 0.14 ± 0.05^ab % ID/g | Biodistribution: Intestine ([2]; 1 h): 0.27 ± 0.10^abd % ID/g | Biodistribution: Kidneys ([2]; 1 h): 11.3 ± 2.10^ab % ID/g | Biodistribution: Liver ([2]; 1 h): 0.16 ± 0.04^abd % ID/g | Biodistribution: Lung ([2]; 1 h): 0.31 ± 0.09^ab % ID/g | Biodistribution: Muscle ([2]; 1 h): 0.13 ± 0.04^ab % ID/g | Biodistribution: Pancreas ([2]; 1 h): 0.15 ± 0.04^abd % ID/g | Biodistribution: Spleen ([2]; 1 h): 0.12 ± 0.04^ab % ID/g | Biodistribution: Stomach ([2]; 1 h): 0.42 ± 0.14^abd % ID/g

CSCC[C@H](NC(=O)[C@H](Cc1c[nH]c2ccccc12)NC(=O)CNC(=O)[C@H](Cc1ccc(O)cc1)NC(=O)[C@H](C)NC(=O)[C@@H](CCC(=O)O)NC(=O)CCSC1CC(=O)N(CCC(=O)NC2CCCN(O)C(=O)C=C(C)CCOC(=O)C(NC(=O)CCN3C(=O)CC(SCCC(=O)N[C@H](CCC(=O)O)C(=O)N[C@@H](C)C(=O)N[C@@H](Cc4ccc(O)cc4)C(=O)NCC(=O)N[C@@H](Cc4c[nH]c5ccccc45)C(=O)N[C@@H](CCSC)C(=O)N[C@@H](CC(=O)O)C(=O)N[C@@H](Cc4ccccc4)C(N)=O)C3=O)CCCN(O)C(=O)C=C(C)CCOC(=O)C(NC(=O)CCN3C(=O)CC(SCCC(=O)N[C@H](CCC(=O)O)C(=O)N[C@@H](C)C(=O)N[C@@H](Cc4ccc(O)cc4)C(=O)NCC(=O)N[C@@H](Cc4c[nH]c5ccccc45)C(=O)N[C@@H](CCSC)C(=O)N[C@@H](CC(=O)O)C(=O)N[C@@H](Cc4ccccc4)C(N)=O)C3=O)CCCN(O)C(=O)C=C(C)CCOC2=O)C1=O)C(=O)N[C@@H](CC(=O)O)C(=O)N[C@@H](Cc1ccccc1)C(N)=O (some centres unmarked) [^89Zr-labelled Trimer, metal not drawn]
Distribution coefficient logD (pH 7.4) [1]: −2.41 ± 0.04 | Biodistribution: A431-CCK2R tumour (receptor positive) ([2]; 1 h): 4.28 ± 0.95^b % ID/g | Biodistribution: A431-mock tumour (receptor negative) ([2]; 1 h): 0.81 ± 0.24^d % ID/g | Biodistribution: Blood ([2]; 1 h): 1.46 ± 0.32^d % ID/g | Biodistribution: Bone ([2]; 1 h): 1.39 ± 0.65 % ID/g | Biodistribution: Heart ([2]; 1 h): 0.92 ± 0.21^d % ID/g | Biodistribution: Intestine ([2]; 1 h): 0.56 ± 0.14^d % ID/g | Biodistribution: Kidneys ([2]; 1 h): 57.7 ± 14.4^e % ID/g | Biodistribution: Liver ([2]; 1 h): 0.84 ± 0.21^d % ID/g | Biodistribution: Lung ([2]; 1 h): 1.44 ± 0.39^d % ID/g | Biodistribution: Muscle ([2]; 1 h): 0.47 ± 0.18^cd % ID/g | Biodistribution: Pancreas ([2]; 1 h): 1.56 ± 0.44 % ID/g | Biodistribution: Spleen ([2]; 1 h): 0.79 ± 0.23^d % ID/g | Biodistribution: Stomach ([2]; 1 h): 3.10 ± 0.97 % ID/g | Biodistribution: A431-CCK2R tumour (receptor positive) ([2]; 2 h): 8.90 ± 3.10^e % ID/g | Biodistribution: A431-mock tumour (receptor negative) ([2]; 2 h): 0.93 ± 0.29^d % ID/g | Biodistribution: Blood ([2]; 2 h): 1.19 ± 0.32^d % ID/g | Biodistribution: Bone ([2]; 2 h): 2.07 ± 0.68 % ID/g | Biodistribution: Heart ([2]; 2 h): 0.91 ± 0.25^d % ID/g | Biodistribution: Intestine ([2]; 2 h): 0.44 ± 0.30^d % ID/g | Biodistribution: Kidneys ([2]; 2 h): 96.5 ± 23.6^f % ID/g | Biodistribution: Liver ([2]; 2 h): 1.28 ± 0.35^d % ID/g | Biodistribution: Lung ([2]; 2 h): 1.21 ± 0.23^d % ID/g | Biodistribution: Muscle ([2]; 2 h): 0.42 ± 0.07^d % ID/g | Biodistribution: Pancreas ([2]; 2 h): 1.51 ± 0.40 % ID/g | Biodistribution: Spleen ([2]; 2 h): 0.90 ± 0.25^d % ID/g | Biodistribution: Stomach ([2]; 2 h): 3.15 ± 0.75 % ID/g | Biodistribution: A431-CCK2R tumour (receptor positive) ([2]; 4 h): 14.39 ± 3.92 % ID/g | Biodistribution: A431-mock tumour (receptor negative) ([2]; 4 h): 0.66 ± 0.06^d % ID/g | Biodistribution: Blood ([2]; 4 h): 0.75 ± 0.26^d % ID/g | Biodistribution: Bone ([2]; 4 h): 4.41 ± 1.31 % ID/g | Biodistribution: Heart ([2]; 4 h): 0.91 ± 0.09^d % ID/g | Biodistribution: Intestine ([2]; 4 h): 0.65 ± 0.07^d % ID/g | Biodistribution: Kidneys ([2]; 4 h): 150.5 ± 18.3 % ID/g | Biodistribution: Liver ([2]; 4 h): 1.71 ± 0.32^d % ID/g | Biodistribution: Lung ([2]; 4 h): 0.84 ± 0.20^d % ID/g | Biodistribution: Muscle ([2]; 4 h): 0.62 ± 0.23 % ID/g | Biodistribution: Pancreas ([2]; 4 h): 2.34 ± 0.59 % ID/g | Biodistribution: Spleen ([2]; 4 h): 0.95 ± 0.13^d % ID/g | Biodistribution: Stomach ([2]; 4 h): 3.50 ± 0.86^d % ID/g
